Tests used:
[1] = format: in vitro ADME
From the text: FIG. 24 presents the cumulative transdermal transport of 1 wt % desmopressin, (□) via water solution, (Δ) via HII mesophase.
The applicability and efficiency the HII mesophase as carriers for a transdermal delivery of desmopressin as model peptide drug was studied. Such delivery was especially relevant since the high hydrophilicity of this peptide was the main reason for its uncontrolled fast release when used without a proper carrier.
In the case of bulk hexagonal mesophase, reduced values of steady-state flux were obtained for the drug and its permeability coefficients through the skin, as compared to a water solution. In other words, the peptide molecules penetrated more easily and freely through the skin from water solution, than from hexagonal phase vehicles. […] The drug probably accumulated in microfissures and in a three-dimensional network of thin threads of the skin.

[2] = cubic phase; cited from earlier work
[3] = ATR-FTIR secondary structure of LSZ as a function of temperature; format: physicochemical
Method: Proteins in general are known for their low stability at high temperatures.
Further temperature increase confirmed the diverse denaturation mechanism. Up to 73° C., the α-helix and the random coil contents decreased in favor of γ-turn formation.

[4] = ATR-FTIR secondary structure analysis of LSZ (amide I' band) as a function of pH; format: physicochemical
Method: The spectra were recorded with 50 scans, with spectral resolution of 2 cm^−1, at room temperature.

[5] = ATR-FTIR secondary structure of LSZ under urea denaturation; format: physicochemical
From the text: The α-helix to β-sheet transition in proteins is highly important for understanding their folding and biological functions. It is recognized that the α→β transition is probably responsible for several conformational diseases, such as Alzheimer disease, where the α-helical forms are normal and the β-sheet forms are amyloidogenic. Urea is an accepted denaturating agent, which may act in several molecular mechanisms. These possible pathways include direct interactions of urea with the protein, indirect effects by decreasing water-water interactions and hydrogen bond strength, and allowing the exposure of nonpolar groups of the protein to the solvent and combinations thereof.
The β-sheet formation was detected by FTIR analysis at 1620 cm^−1 and it was associated with aggregation of the protein, caused by denaturation, in accordance with the literature. In contrast, within the hexagonal mesophase the α-helical conformation stayed intact up to 4M of urea.

[6] = In vivo oral delivery of calcitonin in rats, plasma calcium levels; parameters: species or system Sprague-Dawley rats; settings: calcitonin solubilized in hexagonal liquid crystals and/or hexosomes
Method: Male Sprague-Dawley rats (Orient Bio Inc, Korea), 7- to 8-weeks old, weighing 250-310 g, were used in the experiments. Animals were housed under a 12-h light-dark cycle, with food and water ad libitum. All animal handling was in accordance with the guidelines of Animal Care and Use Committee of the Korean Institute of Science and Technology.
The technique of cannulation of the jugular vein and arterial has been developed to allow serial blood sampling from an animal. After anesthesia with 0.4 ml/kg of intraperitoneally administered Rumpun/Zoletile [1:2 (v/v)], an incision was made in the skin just above the right clavicle. After preparation of the jugular vein, it was ligated at the distal side. A cannula filled with heparinized normal saline (10 units/ml) was inserted until the tip reached into the right atrium. Arterial cannulation was performed according to the same methods. […]
Calcium concentration at time zero was normalized as the reference level. […] The calcium level in plasma sample was determined using a commercial Calcium Colorimetric Assay Kit (K380-250, Biovision, Mountain View, Calif., USA). In short, plasma calcium was treated with o-cresolphthalein to form a purple colored complex which was measured at 575 nm. […]

[7] = ATR-FTIR conformational stability of calcitonin in HII mesophase; format: physicochemical
From the text: In order to overcome this problem, calcitonin was solubilized into the reverse hexagonal mesophase of the invention, as disclosed herein. Transition from random coil, which is characteristic to the stable and soluble state of the peptide to α helix and mainly β-sheet, which are responsible for the unfavorable aggregation, was detected using ATR-FTIR (FIG. 31). It is well documented that calcitonin is extremely unstable in aqueous solutions, which is reflected by a significant decrease of random coil content and simultaneous increase in the concentration of α helix and β-sheet. At room temperature this trend is observed already after ˜2 days. Using the ATR-FTIR technique, the embedment of calcitonin into the aqueous channels of HII mesophase was explored, indicating a significant improvement in the stability of the peptide (FIGS. 32a-c). […] Therefore, the opposite tendency of calcitonin stabilization in the hexagonal phase was detected, as compared to a water solution. Only after 27 days, the peptide stability decreased, as reflected by the decrease of the random coil content.

[8] = water solution, after urea denaturation (starting from 2M urea)
[9] = water solution, before the urea-induced decrease

NC(=O)CC[C@@H]1NC(=O)[C@H](Cc2ccccc2)NC(=O)[C@H](Cc2ccc(O)cc2)NC(=O)CCSSC[C@@H](C(=O)N2CCC[C@H]2C(=O)N[C@H](CCCN=C(N)N)C(=O)NCC(N)=O)NC(=O)[C@H](CC(N)=O)NC1=O [desmopressin]
permeability coefficients through the skin [1]: reduced | release via the HII mesophase [1]: sustained release | steady-state flux [1]: reduced

LSZ: hydrophilic protein (14.4 KDa) used as model protein solubilized in the HII mesophase
time in which the bulk of the release occurred [2]: a week | temperature from which LSZ denaturation occurs ([3]; D2O): 63 °C | random coil content ([3]; D2O, 60° C.): ~0.3 | α-helix content ([3]; D2O, 60° C.): ~0.7 | random coil content ([3]; D2O, 65° C.): 0.62 | α-helix content ([3]; D2O, 65° C.): 0.34 | α-helix content ([3]; LSZ loaded HII mesophase, 60° C.): ~0.7 | γ-turn content ([3]; LSZ loaded HII mesophase, 63-65° C.): 0.1 | α-helix content ([3]; LSZ loaded HII mesophase, 65° C.): 0.61 | γ-turn content ([3]; LSZ loaded HII mesophase, before 63-65° C.): 0 | random coil content ([3]; LSZ loaded HII mesophase, between 63-65° C.): preserved | secondary structure on incorporation into hexagonal phase ([4]; HII mesophase, pH 1.5 to 6): no modifications | random coil structure content ([4]; LSZ solution in D2O, pH 1.5): 0.22 | α-helix content ([4]; LSZ solution in D2O, pH 1.5): 0.78 | random coil structure content ([4]; LSZ solution in D2O, pH 11.14): 0.4 | random coil content within HII mesophases compared to D2O ([4]; pH from 6 to 11): lower | α-helix content within HII mesophases compared to D2O ([4]; pH from 6 to 11): considerably higher | β-sheet content within HII mesophase compared to water solution ([5]; urea): significantly lower | random coil content [5, 8]: 0.03 | α-helix content [5, 8]: 0.21 | random coil content [5, 9]: 0.27 | α-helix content [5, 9]: 0.73 | random coil content ([5]; water solution, urea (comparison with HII)): 0.06 | β-sheet content ([5]; water solution, urea denaturation): up to 0.69 | random coil content ([5]; within the HII mesophase, urea): 0.18 | urea concentration up to which α-helical conformation stayed intact ([5]; within the hexagonal mesophase): up to 4 M

calcitonin
plasma levels of calcium [6]: significantly reduced | random coil structure content ([7]; in HII mesophase, pH 3 and 5, 27th day): ~100% | content of α helix and β-sheet forms as a function of time ([7]; in HII mesophase, pH 3 to 9): drastically decreased | time after which the peptide stability decreased ([7]; in reverse hexagonal phase): 27 days | time for which sCT conformational stability is maintained ([7]; solubilized within hexagonal mesophases): more than 20 days

cytochrome C: intermediate sized protein released from cubic phase [reference compound]
time in which the bulk of the release occurred [2]: a week

B1: myoglobin: intermediate sized protein released from cubic phase (protein, UniProt P68082 2-154, looked up)
Myoglobin: GLSDGEWQQVLNVWGKVEADIAGHGQEVLIRLFTGHPETLEKFDKFKHLKTEAEMKASEDLKKHGTVVLTALGGILKKKGHHEAELKPLAQSHATKHKIPIKYLEFISDAIIHVLHSKHPGDFGADAQGAMTKALELFRNDIAAKYKELGFQG
time in which the bulk of the release occurred [2]: a week

Reference: patent US10149824B2, “Reverse hexagonal mesophases (HII) and uses thereof” (YISSUM RESEARCH DEVELOPMENT COMPANY OF THE HEBREW …, priority 2009, dated 2018)
